Biological target: recombinant FLIP DED1/2 (amino acids 1–184) with a C‐terminal His‐tag (UniProt O15519 1-184)
Assay: AlphaScreen or HTRF; cell-free AlphaScreen: FLIP DED1/2-His on nickel chelate acceptor beads, GST-FADD DED on glutathione donor beads; 25 mM Tris pH 7.5, 300 mM NaCl, 0.0007% Tween-20, 0.05% BSA; room temperature; 25 μl in 384-well plate
Conditions: both partners purified

B1: recombinant FADD DED (amino acids 1–90) with an N‐terminal GST‐tag (domain or fragment)
chain: MDPFLVLLHSVSSSLSSSELTELKFLCLGRVGKRKLERVQSGLDLFSMLLEQNDLEPGHTELLRELLASLRRHDLLRRVDDFEAGAAAGA
notes: FADD, death effector domain, amino acids 1-90; Held by glutathione donor beads in the AlphaScreen; source: recombinant; not shown: GST, N-terminal, kept
- binding result: binds
